Source: patent US8138323 (YEDA RESEARCH AND DEVELOPMENT, dated 2012)

Target: TNF (UniProt P01375 77-233)
Experiment: cell-based or functional assay

Chain of TNF (P01375 77-233 limits assumed): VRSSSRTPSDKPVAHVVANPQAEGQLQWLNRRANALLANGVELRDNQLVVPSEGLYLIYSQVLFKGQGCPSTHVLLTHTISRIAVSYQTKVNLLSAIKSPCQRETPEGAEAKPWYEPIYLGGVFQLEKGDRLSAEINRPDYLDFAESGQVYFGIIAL

B1: Tumor Necrosis Factor (TNF) Binding Protein II (receptor, human, UniProt P20333 25-213, looked up)
chain: AQVAFTPYAPEPGSTCRLREYYDQTAQMCCSKCSPGQHAKVFCTKTSDTVCDSCEDSTYTQLWNWVPECLSCGSRCSSDQVETQACTREQNRICTCRPGWYCALSKQEGCRLCAPLRKCRPGFGVARPGTETSDVVCKPCAPGTFSNTTSSTDICRPHQICNVVAIPGNASMDAVCTSTSPTRSMAPGA
- detectable cytotoxicity of rTNF in the presence of TBP-II against rTNF alone, days 2 to 9: 10 fold
